Data reported in patent US20120065365A1, “Stable Radiopharmaceutical Compositions and Methods for Their Preparation” (BRACCO IMAGING S.P.A., priority 2003, published 2012).
Read-outs that look alike come from different tables or passages of the source.

How the values were obtained:
[1] = Stability in Radiolysis Protecting Solution containing methionine (FIG. 4 and similar study); assay type: physicochemical; conditions: methionine in the radiolysis protecting solution increased to 3 mg/mL
Protocol: Formulations stabilized by such cocktails maintained excellent radiochemical purity (RCP) values (>95% RCP) for as long as 5 days at room temperature. This stabilizing cocktail is added immediately after formation of the radioactive complex, so would be the second vial of a two-vial kit.

[2] = assay type: physicochemical; conditions: 50 mCi/2 mL, Radiolysis Protecting Solution with 0 mg/mL L-cysteine, room temperature
Protocol: ^177Lu-A was prepared at a 50 mCi level as described in EXAMPLE 4. Immediately after cooling the reaction mixture to room temperature, 1 mL of a Radiolysis Protecting Solution was added, that contained 10 mg/mL gentisic acid; 50 mg/mL ascorbic acid sodium salt; 2 mg/mL HSA; 0.9% (v:v) benzyl alcohol and 1 mg/mL of Na2EDTA.2H2O in 0.05 M, pH 3.3 citrate buffer. The reaction vial was stored in an autosampler chamber and the stability was analysed by RP-HPLC over time.

[3] = assay type: physicochemical; conditions: Radiolysis Protecting Solution containing L-selenomethionine, room temperature
Protocol: ^177Lu-A and ^177Lu-B were prepared at a 50 mCi level as described in EXAMPLE 4. Immediately after cooling the reaction mixtures to room temperature, 1 mL of a Radiolysis Protecting solution was added, containing 10 mg/mL gentisic acid; 50 mg/mL ascorbic acid sodium salt; 2 mg/mL HSA; 3.92 mg/mL L-selenomethionine, 0.9% (v:v) benzyl alcohol and 1 mg/mL of Na2EDTA.2H2O in 0.05 M, pH 5.3 citrate buffer. The reaction vials were stored in the autosampler chamber and the stability was analysed by RP-HPLC over time using HPLC Methods 3 [^177Lu-A] or 4 [^177Lu-B].

[4] = assay type: physicochemical; conditions: 50 mCi/2 mL, Radiolysis Protecting Solution, room temperature
Protocol: ^177Lu-A and ^177Lu-B were prepared at a 50 mCi level as described in EXAMPLE 4. Immediately after cooling the reaction mixtures to room temperature, 1 mL of a Radiolysis Protecting Solution was added, containing 10 mg/mL gentisic Acid; 50 mg/mL ascorbic acid sodium salt, 2 mg/mL HSA, (2 mg/mL or 3.52 mg/mL) L-cysteine, 0.9% (v/v) benzyl alcohol and 1 mg/mL of Na2EDTA.2H2O in 0.05 M, pH 5.3 citrate buffer. The reaction vials were stored in the autosampler chamber and the stability was analysed by RP-HPLC over time using HPLC Methods 3 [^177Lu-A] or 4 [^177Lu-B]. Similar results were obtained for ^177Lu-B.

[5] = assay type: physicochemical; conditions: 50 mCi/2 mL in Radiolysis Protecting Solution containing L-methionine, room temperature
Protocol: The injection volume was 20 μL.
A Radiolysis Protecting Solution was prepared to contain 10 mg/mL gentisic acid; 50 mg/mL ascorbic acid sodium salt; 2 mg/mL HSA; 2.98 mg/mL L-methionine, 0.9% (v:v) benzyl alcohol and 1 mg/mL of Na2EDTA.2H2O in 0.05 M, pH 5.3 citrate buffer. […] The mixture was incubated at 100° C. for 5 min, and then cooled to room temperature with a water bath. A 1-mL aliquot of the Radiolysis Protecting Solution was immediately added. The reaction vial was stored in an autosampler chamber and the stability was analyzed by Reversed Phase HPLC over time, using HPLC Methods 3 and 4. The results obtained for ^177Lu-B are shown in the chromatograms in FIG. 9.

[6] = assay type: physicochemical; conditions: 55 mCi/2 ml, 1 mL radiolysis protecting solution (L-cysteine) added after complex formation, room temperature

## ^177Lu-A: the ^177Lu complex of DOTA-Gly-ACA-Gln-Trp-Ala-Val-Gly-His-Leu-Met-NH2
[1]
  RCP (effective radiostabilization): > 95%
[2]; 0 d
  % RCP 0-d (first value of cell): 100/100%
  % RCP 0-d (second value of cell): 100/100%
[2]; 1 d
  % RCP 1-d (first value of cell): 94.9%
  % RCP 1-d (second value of cell): 99.2%
[2]; 2 d
  % RCP 2-d (first value of cell): 93.6%
  % RCP 2-d (second value of cell): 97.3%
[2]; 3 d
  % RCP 3-d (second value of cell): ND/95.1%
[2]; 5 d
  % RCP 5-d (first value of cell): 90.4%
  % RCP 5-d (second value of cell): 92.9%
[3]; 50 mCi level, 0 d
  % RCP 0-d: 97.6%
[3]; 1 d
  % RCP 1-d: 98.2%
[3]; 2 d
  % RCP 2-d: 97.5%
[3]; 3 d
  % RCP 3-d: 97.8%
[3]; 5 d
  % RCP 5-d: 99.4%
[4]; L-cysteine 1.0 mg/mL
  % RCP 0-d: 100%
  % RCP 1-d: 99.9%
  % RCP 2-d: 98.4%
  % RCP 3-d: 97.5%
  % RCP 5-d: 96.9%
[4]; L-cysteine 1.75 mg/mL
  % RCP 0-d: 100%
  % RCP 1-d: 99.9%
  % RCP 2-d: 98.9%
  % RCP 3-d: 95.8%
  % RCP 5-d: 93.3%
[5]; 0 d
  % RCP 0-d: 100%
[5]; 1 d
  % RCP 1-d: 100%
[5]; 2 d
  % RCP 2-d: 100%
[5]; 5 d
  % RCP 5-d: 100%
[6]
  RCP for 5 days: > 95%
